The assay addresses T1, 重组人IL-5蛋白 (recombinant Human IL-5, R&D Systems 205-IL-005) (human, UniProt P05113 20-134).
T1 construct: Bought protein; also called 重组human IL-5; His-tag重组human IL-5
T1 sequence (looked up): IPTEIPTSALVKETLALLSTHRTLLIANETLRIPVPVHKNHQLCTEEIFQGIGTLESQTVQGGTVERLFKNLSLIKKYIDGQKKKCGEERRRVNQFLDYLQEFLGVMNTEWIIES
Put plainly: BLI (Probe Life Gator), antibody 2 μg/mL on proA probe, recombinant human IL-5 at 150 nM and 70 nM.

The text below walks through data of patent publication CN115819578A (WUHAN ABCLONAL INC, dated 2023).

B1: 兔单克隆抗体16D2 (anti-human IL-5 rabbit monoclonal antibody 16D2) (antibody, V domains shown)
VH: QEQLEESGGDLVKPEGSLTLTCTASGFSFSINYWICWVRQAPGKGLEWIACIYGGSSGSAYYATWAKGRFTISKTSSTTVTLQMTSLTAADTATYFCARDDEGGGIFYNLWGPGTLVTVSS
VL: AYDMTQTPSSASEPVGGTVTIKCQASEDIYNLLAWYQQKPGQPPKLLIYSASTLASGVPSRFKGSGSGTEYTLTISDLECADAATYYCEQHYTPSNVHNTFGGGTEVVVKG
notes: also called 16D2抗体; 抗人IL-5兔单克隆抗体16D2
On to B1, for which the equilibrium dissociation constant (Kd) (commonly the free concentration of one partner at which half of the binding sites on the other are occupied at equilibrium, for simple one-to-one binding) was found to be 4.03 nM.

B2: 兔单克隆抗体24A10 (anti-human IL-5 rabbit monoclonal antibody 24A10) (antibody, V domains shown)
VH: QSLEESGGGLVQPEGSLTLTCTASGFSFSSSYYMCWVRQAPGKGLEWIGCIAAGSSGISYYASWAKGRFTISKTSSTTVTLQMTGLTAADTATYLCSRSCDIYSDGGTSFDLWGPGTLVTVSS
VL: DVVMTQTPASVSEPVGGTVTIKCQASQSISSYLAWYQQKPGQPPKLLIYEASKLASGVPSRFKGSGSGTEFTLTISDLECADAATYYCESNYDITSSYFGGGTEVVVKG
notes: in the BLI assays it was unlabelled; also called 24A10抗体; 人IL-5兔单克隆抗体24A10
Take B2: the Kd worked out at 0.306 nM.
